This note sets out measurements from publication PMC6462529.

Assay [1] deals with HIV-1 LAI Env (parental LAI virus) (HIV-1 (isolate LAI)) (UniProt P03377).
A further assay deals with CH01. The assay is described as follows: D7324-capture ELISA. The following applies: PGT145-purified trimers; SOSIP.664 AUC-value printed 0.32.
For another assay, the target named is PGT145. The assay is described as follows: D7324-capture ELISA. The following applies: PGT145-purified trimers; SOSIP.664 AUC-value printed 0.68.
In another assay the target is 2G12. The experiment in a line: D7324-capture ELISA. The following applies: PGT145-purified trimers; SOSIP.664 AUC-value printed 2.89. In general terms: An ELISA detects its analyte on a solid surface through an enzyme-linked reagent.
In another assay the target is VRC26.09. The assay is described as follows: D7324-capture ELISA. The settings on record: PGT145-purified trimers; SOSIP.664 AUC-value printed 0.49.
The target of the next assay is PG9. The experiment in a line: D7324-capture ELISA. The following applies: PGT145-purified trimers; SOSIP.664 AUC-value printed 1.70.
A further assay addresses CH103. The experiment in a line: D7324-capture ELISA. The settings on record: PGT145-purified trimers; SOSIP.664 AUC-value printed 1.34.
The target in another assay is PG16. The experiment in a line: D7324-capture ELISA. The following applies: PGT145-purified trimers; SOSIP.664 AUC-value printed 0.55.
Another assay deals with gl-PG9. The assay is described as follows: D7324-capture ELISA. The settings on record: PGT145-purified trimers; SOSIP.664 AUC-value printed 0.14.
A further assay concerns the target gl-PG16. The experiment in a line: D7324-capture ELISA. The settings on record: PGT145-purified trimers; SOSIP.664 AUC-value printed 0.01.
A further assay deals with PGT151. The assay is described as follows: D7324-capture ELISA. The settings on record: PGT145-purified trimers; SOSIP.664 AUC-value printed 0.75.
Another assay concerns the target PGT121. The assay is described as follows: D7324-capture ELISA. The settings on record: PGT145-purified trimers; SOSIP.664 AUC-value printed 1.60.
For another assay, the target named is gl-CH01. The assay is described as follows: D7324-capture ELISA. The settings on record: PGT145-purified trimers; SOSIP.664 AUC-value printed 0.14.
Another assay deals with F105. The assay is described as follows: D7324-capture ELISA. The following applies: PGT145-purified trimers; SOSIP.664 AUC-value printed 0.12.

As for PG9 (antibody), the IC50 of neutralization of the parental LAI virus in [1] was 2 µg/mL.

For the substance “BG505 SOSIP.664-D7324 trimer E153C; R178C; G152E”, the ratio to parent with CH01 was 1.9; in the assay with PGT145 it was 1; with 2G12, 1; in the assay with VRC26.09 it was 1.3; with PG9, 2; with CH103 it was 2.3. The ratio to parent with PG16 is 1.7; with gl-PG9, 1.4; in the assay with gl-PG16 it was 3.9; with PGT151, 1; with PGT121 it was 1.5; with gl-CH01, 2.1. Also, the ratio to parent with F105 is 4.7.
